Reference: article PMC5389554

B1: CTGAAAAA probe (il-6, il-1b, ccl9, cnbp) (dsDNA)
DNA 1: CTGAAAAA
DNA 2: TTTTTCAG
B2: AAATTAGA probe (il-6, ccl4) (dsDNA)
DNA 1: AAATTAGA
DNA 2: TCTAATTT
B3: 26-nt-AAATTAGT (dsDNA)
DNA 1: TGTAAACAGAAATTAGTATCTCTGCC
DNA 2: GGCAGAGATACTAATTTCTGTTTACA
B4: G-rich 26-nt (strandedness in assay not stated; antisense S140 also listed) (mixed)
strand: GGAGGAGAGAGAGAGAGAGAGAGAGA
B5: Mut.3 (dsDNA)
DNA 1: AGTTGCCA
DNA 2: TGGCAACT
B6: Mut.6 (dsDNA)
DNA 1: CTGGGGGA
DNA 2: TCCCCCAG
B7: AGTTGAGA probe (ccl4) (dsDNA)
DNA 1: AGTTGAGA
DNA 2: TCTCAACT
B8: AAATTAGT probe (il-12b, ccl5, cnbp) (dsDNA)
DNA 1: AAATTAGT
DNA 2: ACTAATTT
B9: NF-κB probe (dsDNA)
DNA 1: AATGTGGGATTTTCCCATGA
DNA 2: TCATGGGAAAATCCCACATT
B10: 26-nt-CTGAAAAA (dsDNA)
DNA 1: GGAACTAGTCTGAAAAAGAAACTAAC
DNA 2: GTTAGTTTCTTTTTCAGACTAGTTCC
B11: Mut.2 (dsDNA)
DNA 1: AGTGGAGA
DNA 2: TCTCCACT
B12: Mut.5 (dsDNA)
DNA 1: GGGAAAAA
DNA 2: TTTTTCCC

Molecular target: T1, GST-CNBP (isoform 1, WT) (mouse, UniProt P53996 1-178)
Assay: EMSA

T1 sequence (P53996 whole entry, canonical isoform): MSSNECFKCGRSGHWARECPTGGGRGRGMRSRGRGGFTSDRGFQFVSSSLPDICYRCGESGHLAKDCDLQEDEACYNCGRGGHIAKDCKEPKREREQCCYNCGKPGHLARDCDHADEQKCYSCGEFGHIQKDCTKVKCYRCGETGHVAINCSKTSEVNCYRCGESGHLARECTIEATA

Row | Binder | binding result
1 | B1 | binds
2 | B2 | binds
3 | B3 | binds
4 | B4 | binds
5 | B5 | no binding
6 | B6 | no binding
7 | B7 | binds
8 | B8 | binds
9 | B9 | no binding
10 | B10 | binds

Molecular target: T1, GST-CNBP (isoform 1, WT)
Assay: EMSA
Remark: another data set of the same source

Row | Binder | binding signal
11 | B11 | > 1 fold of AGTTGAGA

Molecular target: T1, GST-CNBP (isoform 1, WT)
Assay: EMSA
Remark: another data set of the same source

Row | Binder | binding signal
12 | B12 | > 1 fold of CTGAAAAA

Molecular target: GST-CNBP Δ54-178 (CNBP-1-53) (mouse, UniProt P53996 1-53, del54-178)
Assay: EMSA

Chain of GST-CNBP Δ54-178 (CNBP-1-53) (P53996 1-53, stated change not applied): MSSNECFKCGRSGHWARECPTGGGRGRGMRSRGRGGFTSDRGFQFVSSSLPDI

Row | Binder | binding result
13 | B1 | binds
